In the supplement of paper PMC7877785:
± gives the uncertainty stated by the source.

Test: self-splicing fitness, log relative to wild type (ln ratio); higher = more splicing; Tetrahymena group I intron in knt gene, E. coli kanamycin selection, DiMSum; sequences stand for … in CUCUCU…GGAGGGAAAAGUUAUCAGGCAUGCACCUGGUAGCUAGUCUUUAAACCAAUAGAUUGCAUCGGUUUAAAAGGCAAGACCGUCAAAUUGCGGGAAAGGGGUCAACAGCCGUUCAGUACCAAGUCUCAGGGGAAACUUUGAGAUGGCCUUGCAAAGGGUAUGGUAAUAAGCUGACGGACAUGGUCCUAACCACGCAGCCAAGUCCUAAGUCAACAGAUCUUCUGUUGAUAUGGAUGCAGUUCACAGACUAAAUGUCGGUCGGGGAAGAUGUAUUCUUCUCAUAAGAUAUAGUCGGACCUCUCCUUAAUGGGAGCUAGCGGAUGAAGUGAUGCAACACUGGAGCCGCUGGGAACUAAUUUGUAUGCGAAAGUAUAUUGAUUAGUUUUGGAGUACUCGUGGUCG
Outline: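 Colonies from six replicate transformations of E. coli BL21(DE3) were pooled and amplicon-sequenced on an Illumina HiSeq 2500. The library placed an intron with all eight P1ex-region nucleotides randomised inside the knt kanamycin-resistance gene on pET-22b(+), and cells grew overnight at 37°C or 30°C on LB agar with or without 25 μg/mL kanamycin (plus 100 μg/mL carbenicillin, 50 μM IPTG, 0.2% rhamnose). Fitness is the DiMSum error-weighted combination of wild-type-normalised replicate fold changes, kanamycin versus none.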

Sequence | self-splicing fitness (ln) (30 °C) | self-splicing fitness (ln) (37 °C)
GUCAAGCAAUAUUACGCCGU | -2.32 ± 0.31 | -0.783 ± 0.27
GUCAAGCAAUAUUACGCGAA | -1.88 ± 0.085 | -0.888 ± 0.091
GUCAAGCAAUAUUACGCGCU | -1.88 ± 0.092 | -0.425 ± 0.087
GUCAAGCAAUAUUACGCUGA | -5.3 ± 0.45 | -3.74 ± 0.42
GUCAAGCAAUAUUACGCUUC | -4.61 ± 0.42 | -2.4 ± 0.25
GUCAAGCAAUAUUACGGCUG | -4 ± 0.3 | –
GUCAAGCAAUAUUACGGCUU | -4.12 ± 0.35 | -2.74 ± 0.31
GUCAAGCAAUAUUACGGGCU | -4.5 ± 0.25 | -4.77 ± 0.31
GUCAAGCAAUAUUACGGGUC | -3.45 ± 0.19 | -2.16 ± 0.18
GUCAAGCAAUAUUACGUCCC | -1.22 ± 0.29 | -0.2 ± 0.26
GUCAAGCAAUAUUACGUGAA | -1.01 ± 0.072 | 0.556 ± 0.083
GUCAAGCAAUAUUACGUGGG | -3 ± 0.13 | -2.23 ± 0.2
GUCAAGCAAUAUUACGUUCC | -1.5 ± 0.11 | -0.728 ± 0.13
GUCCAGCAAUAUUACGACCG | -2.21 ± 0.5 | –
GUCCAGCAAUAUUACGAGAA | -0.724 ± 0.14 | -0.763 ± 0.14
GUCCAGCAAUAUUACGAGCA | -0.945 ± 0.12 | -1.08 ± 0.15
GUCCAGCAAUAUUACGAGCU | – | -1.96 ± 0.31
GUCCAGCAAUAUUACGCACC | -2 ± 0.17 | -0.64 ± 0.17
GUCCAGCAAUAUUACGCACU | -1.58 ± 0.082 | 0.818 ± 0.11
GUCCAGCAAUAUUACGCGCC | -1.29 ± 0.11 | -0.848 ± 0.14
GUCCAGCAAUAUUACGCGUA | -0.0475 ± 0.068 | 0.185 ± 0.07
GUCCAGCAAUAUUACGCUUU | -0.441 ± 0.06 | 0.678 ± 0.076
